# Assay results as given in the nanobody polyreactivity screen of Harvey et al. (2022).
# Test: yeast display, Sf9 membrane polyspecificity reagent, FACS + sequencing; frameworks hold sequencing errors
# Summary of the method: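 Nanobodies came from a synthetic yeast display library in Saccharomyces cerevisiae BJ5465, induced with galactose for 36–48 hours and stained for 1 hour at 4 °C with 10% biotinylated, detergent-solubilized Sf9 membrane reagent. Cells were enriched on streptavidin microbeads and then FACS-sorted, with low and high (top ~1%) gates set on anti-HA fluorescence for expression and streptavidin fluorescence for reagent binding. Each polyreactivity label reflects the gate a clone came from. Genes were amplified by colony PCR, sequenced by MiSeq 2 × 250 and filtered by CDR length.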
row,Sequence,polyreactivity (PSR sort gate)
1,QVQLVESGGGLVQAGGSLRLSCAASGYTFLGYAMGWYRQAPGKERELVAAIRRSGGRPYYADSVKGRFTISRDNAKNTVYLQINRLKPEDTAVYYCAQGYVGEYDYWGQGTQVTVTS,high polyreactivity
2,QVQLVESGGGLVQAGGSLRLSCAASGYTFLYYAMGWYRQAPGKEREFVAAISRSGGSTYYADSVKGRFTISRDNAKNTVYLQMISLKPEDTAVYYCAARFRYQHQRGDYWGQGTQVTVSS,high polyreactivity
3,QVQLVESGGGLVQAGGSLRLSCAASGYTFLYYAMGWYRQAPGKEREFVAAISRSGGSTYYADSVKGRFTISRDNAKNTVYLQMNSLKPEDTAVYYCAKDHPSGRQYDYWGQGTQVTVSS,high polyreactivity
4,QVQLVESGGGLVQAGGSLRLSCAASGYTFPDYAMGWYRQATGKERELVAAIRSGGGTNYADSVKGRFTISRDNAKNTVYLQMNSLKPEDTAVYYCAKEWAGGLYDYWGQGTQVTVSS,low polyreactivity
5,QVQLVESGGGLVQAGGSLRLSCAASGYTFPFYTMGWYRQAPGKERELVAAINSGGSTYYADSVKGRFTISRDNAKNTVYLQMNSLKPEDNAVYYCAVEGGFRVRYQAQYRYYYCGQGTQVTVSS,high polyreactivity
6,QVQLVESGGGLVQAGGSLRLSCAASGYTFPRYAMGWYRQAPGKERELVAAITWSGGSTYYADSVKGRFTISRDNAKNTVYLQMNSLKPEDTAVYYCNTDRYHRVDFDYWGQGTQVTVSS,high polyreactivity
7,QVQLVESGGGLVQAGGSLRLSCAASGYTFPSNAMGWYRQAPGKERELVAAISSGGRTNYADSVKGRFTISRDNAKNTVYLQMNSLTPEDTAVYYCNADGGPGYPRAYDYWGQGTQVTGSS,low polyreactivity
8,QVQLVESGGGLVQAGGSLRLSCAASGYTFQTNTMGWYRQAPGKERELVAAITDGDSTNYADSVKGRFTISRDNAKNTVYLQMNSLKPEDTAVYYCAAQYYYSEAGMDYWGQGTQVTVSS,low polyreactivity
9,QVQLVESGGGLVQAGGSLRLSCAASGYTFRIYAMGWYRLAPGKERELVAGISSRGTSTYYADSVKGRFTISRDNAKNTVYLQMNSLKPEDTAVYYCAAGRYGRLYGYWGQGTQVTVSS,high polyreactivity
10,QVQLVESGGGLVQAGGSLRLSCAASGYTFRYYAMGWYRQAPGKERELVAAITGSGGSTYYADSVKGRFTISRDNAKNTVYLQMNSLKPEDTAVYYCNTVTTSYKRSGKFDYWGQGTQVTVSS,high polyreactivity
11,QVQLVESGGGLVQAGGSLRLSCAASGYTFRYYAMGWYRQAPGKERELVARITGRAGSTYYADSVKGRFTISRDNAKNTVYLQMNSLKPEDTAVYYCAAQPAHPRRYDYWGQGTQVTVSS,high polyreactivity
12,QVQLVESGGGLVQAGGSLRLSCAASGYTFSDNAMGWYRQAPGKERELVAAITSGVSTYYADSVKGRFTISRDNAKNTVYLQMNSQKPEDTAVYYCAKEVAVFADLYQGAPYGYWGQGTQVTVSS,low polyreactivity
13,QVQLVESGGGLVQAGGSLRLSCAASGYTFSDYAMGWYRQAPGKERELVAAISWSGGSTYYADSVKGRFTISRDNAKNTVYLQMNSLKPEDTAVYYCAAKWYAPDLLYYYWGQGTQVTVSS,low polyreactivity
14,QVQLVESGGGLVQAGGSLRLSCAASGYTFSHYAMGWYRQAPGTERELVAGITWSGGSTYYADSVKGRFTISRDNAKNTVYLQMNSLKPEDTSVYYCAAKYYWYYSYSGIPLFDYWGQGTQVTVSS,low polyreactivity
15,QVQLVESGGGLVQAGGSLRLSCAASGYTFSHYPMGWYRQAPGKERELVAGITWSGGSTYYADSVKGRFTISRDNAKNTVYLQMNSLKPEDTSVYYCAGKYYWYYSYSGIPLFDYWGQGTQVTVSS,low polyreactivity
16,QVQLVESGGGLVQAGGSLRLSCAASGYTFSLNAMGWYRQAPGKERELVAAISGRTGRTYYADSVKGRFTISRDNAKNTVYLQMNSLKPEDTAVYYGNKVYPYQRRTRFDYWGQGTQVTVSS,high polyreactivity
17,QVQLVESGGGLVQAGGSLRLSCAASGYTFSPNDMGWYRQAPGKERELVAAITSSVGSTYYADSVKGRFTISRDNAKNTVYLQLNSLKPEDTAVYYCNKQDSSYYISGGGDYDYWGQGTQVTVSS,low polyreactivity
